According to the supplement of paper PMC9170038:

Test system: MS2 coat protein
Experiment: apparent KD of MS2 coat protein; designed switch direction (-1 OFF switch, 1 ON switch): -1; higher = weaker reporter binding
Summary of the method: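 Each step of the titration lasted 0.8–1.5 h at the lowest concentration and 10–20 min at the highest. The protein, SNAP-549-labelled MS2 coat protein, went from 0.7 or 1.5 nM doubling to 3 µM over RNA switches transcribed on Illumina chips by stalled E. coli RNA polymerase. Normalised cluster fluorescence was curve-fitted, and the per-design median over clusters is given as apparent KD.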

[1] = input ligand: microRNA oligo, concentration not stated
[2] = Eterna round: R95, input ligand: microRNA oligo, concentration not stated
[3] = Eterna round: R95, input ligand: FMN 200 uM
[4] = Eterna round: R95, input ligand: none

Sequence | apparent KD of MS2 coat protein (input ligand: FMN 200 uM) [nM] | apparent KD of MS2 coat protein (input ligand: none) [nM] | apparent KD of MS2 coat protein [2] [nM] | further results
CAUUGUUAUCGAGGAUAUCGUAUUGAGAUACUACGAGAAGGCGGAAUAAACAUGAGGAUCACCCAUGUGAGACGGAUGCUUGUG [Ex NG1 #34] (Eterna round: R96, puzzle: Exclusion NG 1) | 34.1 | 28.3 |  | apparent KD of MS2 coat protein [1]: 16 nM
CCAAGCUUCUUCAUUAUCCACAUGAGGAUCACCCAUGUCUUGGCAAUUAUGACCUGCCCGUCAGGAGCUCGUCUUAU [Sensor-V1 #38] (Eterna round: R97, puzzle: Sensor, turn-off variant 1) | 806 | 951 |  | 
CCAGAGGAAGGAUAUUAAGGCGUAUACAUGAGGAUCACCCAUGUCCUACACUUCGCACUAUAAGAAGGUUCCCGGA [Eternabot (Original) Solution 39] (Eterna round: R97, puzzle: Exclusion 5) | 193 | 121 |  | 
CCAGCAAGUUCAGCUCGUCACAUGAGGAUCACCCAUGUUAAGUAAUCCUUCUCUUCUAGGUAGCGCCGGAGAGAGGG [Eternabot (Original) Solution 16] (Eterna round: R97, puzzle: Sensor, turn-off variant 1) | 32.6 | 43.3 |  | 
CCAGCGUAUGUAAGGAUAUGCUGGUCGAAAGAUCAGCAGAAGGUACAUGAGGAUCACCCAUGUGUAAUCGUUGG [Mod of JL 5 - Jieux - Brourd's mod of Exclusion 4] (Eterna round: R97, puzzle: Brourd's mod of Exclusion 4) | 52.7 | 18.9 |  | 
CCAUACCGAGGAUAUACAUGAGGAUCACCCAUGUCAAAACCACGUGUACGGCGGUCUUGUAGAAGGCGGAAAUA [Onbisodi] (puzzle: Exclusion 3) |  |  | 9.99 | 
CCAUGGGAGCGAGGAUAUAGCCCAUGGGAAGAACUAGAAGGCGCAGACAUGAGGAUCACCCAUGUGUUCAUGAGGAGGUGGACA (Eterna round: R96, puzzle: Exclusion NG 1) | 153 | 121 |  | apparent KD of MS2 coat protein [1]: 82.6 nM
CCAUGGGAGCGAGGAUAUAGCCCAUGGGAAGAGCUAGAAGGCGCUGACAUGAGGAUCACCCAUGUGUUCAUGAGGAGGUGGACA (Eterna round: R96, puzzle: Exclusion NG 1) | 292 | 173 |  | apparent KD of MS2 coat protein [1]: 128 nM
CCAUGUUAGCAGGAUAUGCAAUAAAUCUUUUAAGCAGAAGGGCUUACAUGAGGAUCACCCAUGUAUAAUUUCAA [JR_E6_Sub080] (puzzle: Exclusion 6) |  |  | 42.6 | 
CCCACAAGCUUUUUGCUCGACAUGAGGAUCACCCAUGUUGAAUGGGUUAUAUGUGUGUGAUACAUAUAUAUGUACCU [-24.7, -47.9 kcal, A 26%] (Eterna round: R97, puzzle: Sensor, turn-off variant 1) | 23.2 | 23.5 |  | 
CCCAUGCCCGAGGAUAUGCUGUACAAAAGUACUGCAGAAGGCGGGACAUGAGGAUCACCCAUGUGGCGAAAGCC [Omei Ex G7] (Eterna round: R97, puzzle: Exclusion 6) | 11.5 | 124 |  | 
CCCGGAUCAACUCCCGGGAACAACAUGAGGAUCACCCAUGUCUAGGAUAUCCACCAGUCAAUAAAGGAGAAGGAGACGGUGGUU [Raesessoqu] (Eterna round: R96, puzzle: Exclusion NG 3) | 32.5 | 30.5 |  | apparent KD of MS2 coat protein [1]: 23.3 nM
CCCUCACAUGAGGAUCACCCAUGUCAGGAUAUCUAGUCAGACAGUGUAGCACUAAUGAAGAGAAGGGACGUAUG [Edtetidi] (puzzle: Exclusion 1) |  |  | 23.9 | 
CCCUGACAUGAGGAUCACCCAUGUUAGGAUAUAACAUUUGACACGACAGUGUGAAGUGUUAGAAGGGAUAUGGG [-28.4, -26.7 kcal, A 31%] (Eterna round: R97, puzzle: Exclusion 1) | 36.2 | 22.1 |  | 
CCGAAUAUGUAGGAUAUCGUAUCGGAAACGAUACGAGAAGGGCAAACAUGAGGAUCACCCAUGUUCCUUAACGG [Fiskers Ex 6 - 13] (puzzle: Exclusion 6) |  |  | 15.1 | apparent KD of MS2 coat protein [3]: 16.3 nM; apparent KD of MS2 coat protein [4]: 14.2 nM
CCGACAAGCUGCUAAGGAUACAUGAGGAUCACCCAUGUCGGUAUCCGAGAGGUAUUGAAGUCAACCAUCGCUCGUCU [Eternabot (Original) Solution 49] (Eterna round: R97, puzzle: Sensor, turn-off variant 1) | 167 | 188 |  | 
CCGACAUGAGGAUAUCCAUCUGGAUCAGACUAGAUCCUGAUGGAGAAGGUACAUGAGGAUCACCCAUGUUACGG [Eli 4x 4.46] (Eterna round: R97, puzzle: Exclusion 4) | 372 | 330 |  | 
CCGACCUGAGGAUAUAGCGUCCGCGACAUGAGGAUCACCCAUGUCCCUCAUAACGUAAAACUAGAAGGUAGAGUCG [Eternabot (L1) Solution 75] (Eterna round: R97, puzzle: Exclusion 5) | 29.8 | 25.7 |  | 

Sequence | apparent KD of MS2 coat protein (input ligand: FMN 200 uM) [nM] | apparent KD of MS2 coat protein (input ligand: none) [nM] | apparent KD of MS2 coat protein [2] [nM] | further results
CCGAGGUGGCGGUCCUAUGACAUGAGGAUCACCCAUGUACCUCGCCACGAGCUUUUUGCUCACCUUAUAAUUCUCGG [Ragequen] (puzzle: Sensor v3, turn-off variant 1) |  |  | 17.6 | apparent KD of MS2 coat protein [3]: 18.7 nM; apparent KD of MS2 coat protein [4]: 19.4 nM
CCGCAAAUGCAGGAUAUCGUAUCGGAAACGAUACGAGAAGGGUAAACAUGAGGAUCACCCAUGUUCCUUAACGG [Mat - Exclusion 6 - Eli Mod - D98] (Eterna round: R96, puzzle: Exclusion 6) | 15.5 | 18.1 |  | apparent KD of MS2 coat protein [1]: 13.1 nM
CCGCAAAUGCAGGAUAUCGUAUCGGAAACGAUACGAGAAGGGUAAACAUGAGGAUCACCCAUGUUCCUUAACGG [Mat - Exclusion 6 - Eli Mod - D98] (puzzle: Exclusion 6) |  |  | 16.3 | 
CCGCAAAUGUAGGAUAUCGUAUCGGAUACGAUACGAGAAGGGCAUACAUGAGGAUCACCCAUGUGUCCUAGCGG [Fiskers Ex 6 - 44] (puzzle: Exclusion 6) |  |  | 12 | 
CCGCCACAUGAGGAUCACCCAUGUCAGGAUAUCUAUCAUAGCAUCGAAAGAUGCGGGUAGAGAAGGGACUAUCC [ChP Ext 10-04-2015 #6] (puzzle: Exclusion 1) |  |  | 28.1 | 
CCGCCAUGAGGAUAUUAGUAGUAGUCAGAAAAGACUAUUACUGAGAAGGCACAUGAGGAUCACCCAUGUAGCGG [Mat - Exclusion 4 - Eli Mod - D50] (Eterna round: R97, puzzle: Exclusion 4) | 18.8 | 41 |  | 
CCGCUGUGAGGAUAUUAGUAGUAGUCAGAAUAGACUAUUACUGAGAAGGCACAUGAGGAUCACCCAUGUAGCGG [Eli x4 4.25] (Eterna round: R97, puzzle: Exclusion 4) | 24.8 | 28.9 |  | 
CCGGAAAGGGAGGAUAUAGGAGUCGAUAGACACCUAGAAGGUCUGACAUGAGGAUCACCCAUGUGUCCUACCGG [Fiskers Ex 6 - 90] (puzzle: Exclusion 6) |  |  | 19.9 | apparent KD of MS2 coat protein [3]: 20.3 nM; apparent KD of MS2 coat protein [4]: 19.8 nM
CCGGAAAUAGAGGAUAUCGUAUCGGAUACGAUACGAGAAGGCUGUACAUGAGGAUCACCCAUGUGUCCUACCGG [Fiskers Ex 6 - 58] (puzzle: Exclusion 6) |  |  | 11.3 | 
CCGGAAAUGCAGGAUAUCGUAUCGGAUACGAUACGAGAAGGGUAGACAUGAGGAUCACCCAUGUGUCCUACCGG [Fiskers Ex 6 - 50] (puzzle: Exclusion 6) |  |  | 78.6 | apparent KD of MS2 coat protein [3]: 110 nM; apparent KD of MS2 coat protein [4]: 101 nM
CCGGAACAUGAGGAUCACCCAUGUCAGGAUAUUCCAAAAUCGUCGAUAGACGAUAACAGGAGAAGGGACACCGG [Mat - Exclusion 1 - Eli Mod - D30] (Eterna round: R97, puzzle: Exclusion 1) | 20.4 | 15.7 |  | 
CCGGAACAUGAGGAUCACCCAUGUGAGGAUAUCGUACGUUCGUCGAAAGACGAUCGUACGAGAAGGCAUGCCGG [Eli x1 4.34] (Eterna round: R97, puzzle: Exclusion 1) | 19.6 | 27.7 |  | 
CCGGAAUUACAGGAUAUAGGAGUCGAUAGACACCUAGAAGGGUAGACAUGAGGAUCACCCAUGUGUCCUACCGG [Fiskers Ex 6 - 85] (puzzle: Exclusion 6) |  |  | 176 | 
CCGGAUAUGCAGGAUAUCGUAUCGGAAACGAUACGAGAAGGGUAUACAUGAGGAUCACCCAUGUGUCCUACCGG [Fiskers Ex 6 - 20] (puzzle: Exclusion 6) |  |  | 23.8 | 
CCGGCAUAGGAGGAUAUAGGAGUCGAUAGACACCUAGAAGGCCUGACAUGAGGAUCACCCAUGUGUCCUACCGG [Fiskers Ex 6 - 97] (puzzle: Exclusion 6) |  |  | 12.5 | 
CCGGCUGCUGUGAGGAUAUGCCUGUGGGCCCGCGGGCAGAAGGCACAUGAGGAUCACCCAUGUCCUGCGGUCCC [salish99_bmx4_r4_117] (Eterna round: R97, puzzle: Brourd's mod of Exclusion 4) | 35 | 33.5 |  | 
CCGGCUUAGGAGGAUAUAGGAGUCGAUAGACACCUAGAAGGCCUAACAUGAGGAUCACCCAUGUGACCUACCGG [Mod of Eli 28 - Jieux - Exclusion 6] (Eterna round: R97, puzzle: Exclusion 6) | 132 | 28.6 |  | 
